Columns and labels:
Assay in all cases: EMSA
[1] = system: T1, BaeR (Erwinia amylovora Ea1189), ORF:3df56c72
T1 sequence: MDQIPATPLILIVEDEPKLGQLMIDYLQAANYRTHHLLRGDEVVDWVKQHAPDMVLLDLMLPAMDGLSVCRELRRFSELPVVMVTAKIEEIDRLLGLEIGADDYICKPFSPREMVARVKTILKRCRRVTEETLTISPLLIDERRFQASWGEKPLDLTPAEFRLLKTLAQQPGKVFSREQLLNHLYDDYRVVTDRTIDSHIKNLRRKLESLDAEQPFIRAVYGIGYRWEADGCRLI

[2] = biological target: T2, CpxR (Erwinia amylovora Ea1189) (UniProt A0ABX7MGR0)
T2 sequence: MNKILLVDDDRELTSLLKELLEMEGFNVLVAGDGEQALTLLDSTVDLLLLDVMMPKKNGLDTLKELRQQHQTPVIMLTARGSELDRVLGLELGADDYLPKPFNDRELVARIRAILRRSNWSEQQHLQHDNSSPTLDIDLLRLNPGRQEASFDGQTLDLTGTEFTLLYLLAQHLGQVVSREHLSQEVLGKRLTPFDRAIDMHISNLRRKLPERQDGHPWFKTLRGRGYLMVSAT

[3] = system: BaeR, acetyl phosphate treated (Erwinia amylovora Ea1189)

Row | Substance | binding [1] | binding [2] | binding signal (fold binding vs unphosphorylated BaeR) [3]
1 | TCTACGGTCACGGTTAAGAAACCGCGTCGTCTTTTGCGCCGTCAGCTGCAGATCACCACGCGTATGCGTGGTTTTTTTGGCGCTATTTCATGGCGATAACATATATTAAATCTCGCATTTCTTACGGAATTCTTACGCTGCCAGCATGGAACGCCAGCAGATAAGCTAAGATAATATGCTTAACTACCCACCACCTTTGGACGGGTAAGGGGCTAAAGCCATGCCCTTTACGCCGGGTTTTTGCGCGCCGGGGATTATCCTGTCGGGTGTTGTTTA (double strand) [mdtUVW upstream region] | no binding | no binding | 
2 | TGATTCTCCTGATTGATAAGTGGATAACGCAGCTGATAAGACTGGCAAACAGCGTTGCATGCGCTGCGTTGATTTGTAGCATACCATTTGCCAATACTAAATTTTCTCACCGTAGCAGCTCTTATTTAAGCCGTTATCCTTATTTCCTTCATTTTTCAGCGCCTGAAATTCGCTATCCTTGCCAGCCTGGGGGCAAGCCCTAATCCCGCCCCGCGCCCTGCTTTAATTTCACGGAGAGTAGCACCCAGGATGAAAACACCCCGACGTTTCCCCCTTATCGCCTTGACGGT (double strand) [mdtABC upstream region] | binds | no binding | 
3 | mdtABC upstream region |  |  | 2

From PMC4107485
